Laboratory results taken from US20250136910A1, “DEVICES FOR USE AS BLOOD BRAIN BARRIER MODELS” (Merck Sharp & Dohme LLC, priority 2023, published 2025).

How the values were obtained:
[1] = test system: GFP HUVECs; test: Ang-1 addition to perfusion media, channels endothelialized with GFP HUVECs; format: cell-based, human; details: complete Vasculife (with VEGF) 3 days, then Ang-1 added 15 ng mL^−1; perfused at 5 μL min^−1
Description: FIGS. 25a-25c show immunostained VE-Cadherin junctions for channels endothelialized with GFP HUVECs (30M mL^−1) after being exposed to different media compositions. […] This gel was sustained for a total of twelve days while being perfused at 5 μL min^−1.
For the HUVECs, a mature monolayer was able to be obtained through modulation of the media composition and utilizing biomolecules that play an important role in endothelial cell function. In addition to the removal of VEGF, another avenue explored was the addition of Angiopoetin-1 (Ang-1). Angiopoetin-1 is a glycoprotein that is a known ligand for the endothelial cell-specific receptor tyrosine kinase, Tie-2 receptor. In vascular development during embryogenesis, VEGF and Ang-1 play essential and complementary roles. Vascular endothelial growth factor (VEGF) is responsible for the initial formation of the vascular plexus, while Angiopoetin-1 (Ang-1) is responsible for the subsequent remodeling of the vasculature into a network of mature vessels. […] The incorporation of this glycoprotein was first assessed using hydrogels endothelialized with GFP HUVECs. Three different media strategies were employed to assess the effect of adding Ang-1 to the perfusion media. […]

[2] = test system: GFP HBMECs; test: Ang-1 addition to perfusion media, serpentine gel endothelialized with GFP HBMECs; format: cell-based, human; details: complete Vasculife 3 days, then Ang-1 at 15 ng/ml for 3 days; perfused at 5 μL min^−1; day 6
Description: GFP HBMECs was seeded in the vascular channel at 30M mL^−1and perfused at 5 μL min^−1for duration of the study. […] Overlay and individual channels of GFP HBMEC and VE-Cadherin shown.
Once this was confirmed using HUVECs, the incorporation of Ang-1 to the perfusion media was tested on a gel endothelialized with GFP HBMECs. The same strategy was employed where the gel was perfused for 3 days with complete Vasculife media, then switched to a Vasculife media where Ang-1 was added in at 15 ng/ml for the remaining three days of perfusion culture. Images of cell morphology in the serpentine on days 3, 6, and after fixing and immunostaining for VE-Cadherin are seen in FIG. 26a. […] A magnified portion of the center channel is shown in FIG. 26b, which highlights the morphology of the GFP HBMECs and VE-Cadherin and includes nuclei in the overlay.

B1: Ang-1: glycoprotein that is a known ligand for the endothelial cell-specific receptor tyrosine kinase, Tie-2 receptor (protein, UniProt Q15389 16-498, looked up)
Angiopoietin-1: HIGCSNQRRSPENSGRRYNRIQHGQCAYTFILPEHDGNCRESTTDQYNTNALQRDAPHVEPDFSSQKLQHLEHVMENYTQWLQKLENYIVENMKSEMAQIQQNAVQNHTATMLEIGTSLLSQTAEQTRKLTDVETQVLNQTSRLEIQLLENSLSTYKLEKQLLQQTNEILKIHEKNSLLEHKILEMEGKHKEELDTLKEEKENLQGLVTRQTYIIQELEKQLNRATTNNSVLQKQQLELMDTVHNLVNLCTKEGVLLKGGKREEEKPFRDCADVYQAGFNKSGIYTIYINNMPEPKKVFCNMDVNGGGWTVIQHREDGSLDFQRGWKEYKMGFGNPSGEYWLGNEFIFAITSQRQYMLRIELMDWEGNRAYSQYDRFHIGNEKQNYRLYLKGHTGTAGKQSSLILHGADFSTKDADNDNCMCKCALMLTGGWWFDACGPSNLNGMFYTAGQNHGKLNGIKWHYFKGPSYSLRSTTMMIRPLDF
B1 was tested. Which “endothelial monolayer retention in perfusion culture” value [1] did it give?
The value was “retained an endothelial monolayer for twelve days of perfusion culture”.

What about the “endothelium confluence by VE-Cadherin immunostaining” value [2] of the same molecule?
Its value is “a confluent endothelium of brain microvascular endothelial cells lining the serpentine channel has been achieved”.
